Experimental findings from paper PMC6445466, “Structural determination of the complement inhibitory domain of Borrelia burgdorferi BBK32 provides insight into classical pathway complement evasion by Lyme disease spirochetes” (PLoS Pathogens, 2019) are described below.

In test [1] the target is T1, human C1r, full-length enzyme (human, UniProt P00736 18-705).
T1 sequence: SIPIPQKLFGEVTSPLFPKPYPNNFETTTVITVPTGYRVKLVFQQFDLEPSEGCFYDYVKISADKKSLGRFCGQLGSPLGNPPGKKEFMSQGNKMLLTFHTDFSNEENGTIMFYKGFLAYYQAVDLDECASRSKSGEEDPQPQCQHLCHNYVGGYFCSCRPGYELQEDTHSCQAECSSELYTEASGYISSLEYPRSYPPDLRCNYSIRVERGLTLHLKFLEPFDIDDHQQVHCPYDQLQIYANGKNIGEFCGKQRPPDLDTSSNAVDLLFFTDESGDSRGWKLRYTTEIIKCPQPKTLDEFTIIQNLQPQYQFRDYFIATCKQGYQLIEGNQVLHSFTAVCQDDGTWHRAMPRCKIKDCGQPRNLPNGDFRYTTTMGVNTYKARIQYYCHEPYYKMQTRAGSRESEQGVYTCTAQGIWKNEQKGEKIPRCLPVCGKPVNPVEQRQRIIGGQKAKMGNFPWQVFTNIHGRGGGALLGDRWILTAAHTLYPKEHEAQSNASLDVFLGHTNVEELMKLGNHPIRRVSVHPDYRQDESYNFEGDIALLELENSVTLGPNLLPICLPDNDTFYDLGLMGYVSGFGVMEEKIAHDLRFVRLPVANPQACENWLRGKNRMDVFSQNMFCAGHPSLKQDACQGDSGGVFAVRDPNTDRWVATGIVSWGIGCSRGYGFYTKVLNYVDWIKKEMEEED
The test is described as follows: cell-based or functional assay.

Test [2] concerns the target T2, human C1r, full-length enzyme (human, UniProt P00736 18-705).
T2 construct: complement C1r, human, 92 kDa, CUB1-EGF-CUB2-CCP1-CCP2-SP; bought as purified full-length enzyme; source: bought: Complement Technology (Tyler, TX), purified
T2 sequence: T1 sequence
In words: SPR; Biacore T200, 25°C; borrelial protein immobilised by amine coupling; C1r as analyte, single-cycle kinetics, five-fold dilution series 1.6 to 1000 nM; HBS-T with 5 mM CaCl2; 1:1 kinetic fit; triplicate. The note with it: both partners purified. (In general: Surface plasmon resonance follows binding to a sensor surface in real time, without labels.)

The target in test [3] is T3, C1r_(CCP1-CCP2-SP-auto) (autolytic fragment of human C1r, Leu-300 to Asp-705) (human, UniProt P00736 300-705).
T3 construct: complement C1r, human, residues Leu-300 to Asp-705 by mass spectrometry: last six residues of CUB2 and all of CCP1-CCP2-SP; Runs as one 55 kDa band on non-reducing SDS-PAGE; also called 55 kDa band; autolytic C1r fragment; source: autolytic digestion of bought purified C1r (Complement Tech) overnight at 37 °C; used in the digestion mix (SEC) and purified (SPR)
T3 sequence: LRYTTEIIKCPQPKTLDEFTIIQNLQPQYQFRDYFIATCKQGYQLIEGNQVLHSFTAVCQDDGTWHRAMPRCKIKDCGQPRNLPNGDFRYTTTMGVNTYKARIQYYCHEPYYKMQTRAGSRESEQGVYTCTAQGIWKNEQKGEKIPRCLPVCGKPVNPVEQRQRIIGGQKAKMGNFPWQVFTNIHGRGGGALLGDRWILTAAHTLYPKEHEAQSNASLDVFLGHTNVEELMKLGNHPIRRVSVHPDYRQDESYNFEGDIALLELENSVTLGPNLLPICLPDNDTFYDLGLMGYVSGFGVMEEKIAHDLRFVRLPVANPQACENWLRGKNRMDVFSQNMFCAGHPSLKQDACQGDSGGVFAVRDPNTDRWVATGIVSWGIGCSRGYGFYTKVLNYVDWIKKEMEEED
In words: SPR; Biacore T200, 25 °C, BBK32(206-348) immobilised; C1r fragments as analytes, single-cycle as for C1r, 0.8 to 500 nM; 1:1 Langmuir fit. Conditions: both partners purified.

The target of test [4] is T4, His-C1r-CCP2-SP (residues 376-705) (human, UniProt P00736 376-705).
T4 construct: complement C1r, human, CCP2-SP domains, residues 376-705 as defined by UniProt P00736
T4 sequence: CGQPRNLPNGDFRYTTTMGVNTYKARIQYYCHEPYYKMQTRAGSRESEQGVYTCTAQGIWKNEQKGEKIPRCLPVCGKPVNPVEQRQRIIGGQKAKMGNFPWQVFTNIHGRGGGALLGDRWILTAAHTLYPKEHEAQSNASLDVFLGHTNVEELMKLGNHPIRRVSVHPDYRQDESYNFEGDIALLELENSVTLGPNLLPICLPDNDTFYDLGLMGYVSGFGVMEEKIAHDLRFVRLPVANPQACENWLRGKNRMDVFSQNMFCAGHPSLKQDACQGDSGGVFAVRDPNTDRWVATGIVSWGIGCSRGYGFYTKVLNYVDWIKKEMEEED
Described as above. The note with it: both partners purified.

Test [5] addresses T5, C1r CCP1-CCP2-SP-auto, autolytic fragment of human C1r (Leu-300 to Asp-705) (human, UniProt P00736 300-705).
T5 construct: complement C1r, human, residues Leu-300 to Asp-705 by mass spectrometry: last six residues of CUB2 and the whole of CCP1-CCP2-SP; Migrates as one 55 kDa band on non-reducing SDS-PAGE; also called 55 kDa fragment; source: autolytic digestion of bought C1r (Complement Tech) overnight at 37°C, purified
T5 sequence: T3 sequence
In words: SPR; Biacore T200, 25°C; BBK32(206-348) immobilised by amine coupling; C1r fragments as analytes, single-cycle kinetics as for C1r, 0.8 to 500 nM; 1:1 kinetic fit; triplicate. Conditions: both partners purified.

In test [6] the target is T6, recombinant His-C1r-CCP2-SP (residues 376-705) (human, UniProt P00736 376-705).
T6 construct: complement C1r, human, CCP2-SP domains, residues 376-705 (domains as defined by UniProt P00736); also called rHIS-C1r-CCP2-SP
T6 sequence: T4 sequence
The test is described as above. The note with it: both partners purified.

Another test deals with T7, human C1 complex (human, UniProt P02745 23-245; P02746 28-253; P02747 29-245).
T7 construct: C1q subunit A, human; C1q subunit B, human; C1q subunit C, human; complement C1r, human, within the C1r2C1s2 heterotetramer; complement C1s, human, within the C1r2C1s2 heterotetramer; also called first component of complement; source: bought: Complement Technology (Tyler, TX), purified; copies: + + + 2 + 2
In words: SPR; Biacore T200, 25°C; borrelial protein immobilised by amine coupling (CMD200M chip); C1 as analyte, two-fold dilution series 0 to 150 nM, 2 min association, 3 min dissociation; HBS-T (20 mM HEPES pH 7.3, 140 mM NaCl, 0.005% Tween-20) with 5 mM CaCl2; 1:1 kinetic fit; triplicate. Conditions: both partners purified.

Substitutions are numbered along the chain they refer to. Names and notes keep the numbering of the source.

B1: BBK32-C (residues 206-354, B. burgdorferi strain B31) (domain or fragment)
chain: SNRYQSYLEGVKYNVDSAIQTITKIYNTYTLFSTKLTQMYSTRLDNFAKAKAKEEAAKFTKEDLEKNFKTLLNYIQVSVKTAANFVYINDTHAKRKLENIEAEIKTLIAKIKEQSNLYEAYKAIVTSILLMRDSLKEVQGIIDKNGVWY
B1: in test [1], the “IC50 of C3b deposition, classical pathway-specific ELISA with normal human serum” value was 14 nM; the “IC50 of MAC deposition, classical pathway-specific ELISA with normal human serum” value turned out to be 13 nM; the “IC50 of classical pathway hemolysis of sensitized sheep red blood cells by human serum” value turned out to be 170 nM.

B2: BXK32-C (BBK32-C E308K-Q319K-E324Q) (domain or fragment, Borrelia burgdorferi strain B31, UniProt O50835 206-354, looked up)
chain: B1 chain with E103K, Q114K, E119Q
notes: BBK32, Borrelia burgdorferi strain B31, residues 206-354 (the limits of BBK32-C) with three residues changed to those of B. garinii BGD19; also called BBK32-E308K-Q319K-E324Q; chimeric BBK32-C; source: recombinant, E. coli codon-optimized synthetic DNA in pT7HMT, purified to homogeneity
As for B2, in test [2], the Kd (usually the concentration at which binding is half-saturated) came out at 7.1 nM, the off-rate constant (koff) (commonly a measure of how fast the partners let go of each other) was 0.00016 s⁻¹ and the on-rate (kon) (commonly the second-order rate constant of association) was determined as 22000 M⁻¹ s⁻¹.

B3: BBK32-C (residues 206-354, B. burgdorferi strain B31) (domain or fragment)
chain: B1 chain
notes: BBK32, Borrelia burgdorferi sensu stricto strain B31, residues 206-354; also called BBK32(206-354); source: recombinant, sub-cloned into pT7HMT, purified to homogeneity
Consider B3, for which, in test [2], binding was characterised by a dissociation constant (Kd) of 5.1 nM, the koff stood at 8.6e-05 s⁻¹ and the kon stood at 17000 M⁻¹ s⁻¹.

B4: BBK32_((206-348)) (residues 206-348, B. burgdorferi strain B31) (domain or fragment)
chain: SNRYQSYLEGVKYNVDSAIQTITKIYNTYTLFSTKLTQMYSTRLDNFAKAKAKEEAAKFTKEDLEKNFKTLLNYIQVSVKTAANFVYINDTHAKRKLENIEAEIKTLIAKIKEQSNLYEAYKAIVTSILLMRDSLKEVQGIID
notes: BBK32 of Borrelia burgdorferi strain B31, residues 206-348 (lacks six C-terminal residues relative to BBK32-C); The deposited model holds residues 209-348; also called BBK32-C_((206-348)); crystallization construct
Turning to B4, the values for the Kd in test [3] and in test [4] were 1.5 nM and 3.9 nM, respectively.

B5: BBK32(206-348) (residues 206-348, B. burgdorferi strain B31) (domain or fragment)
chain: B4 chain
notes: BBK32, Borrelia burgdorferi strain B31, residues 206-348 (lacks six C-terminal residues relative to BBK32-C); also called BBK32-C(206-348); source: recombinant, sub-cloned into pT7HMT, purified to homogeneity
As to B5, the koff in test [5] stood at 2.6e-05 s⁻¹; in test [6] it was 3.7e-05 s⁻¹; in test [2], 9.7e-06 s⁻¹. In addition, the association rate constant (kon) in test [5] came to 17000 M⁻¹ s⁻¹; in test [6], 9400 M⁻¹ s⁻¹; in test [2], 13000 M⁻¹ s⁻¹. The molecule also had a Kd in test [2] of 0.75 nM.

B6: BGD19-C (residues 206-354, B. garinii strain IP90) (domain or fragment)
chain: SNRYQSYLEGVKYNVDSAIKTITKIYDTYTLFLTKLTQMYSTRLDNLAKAKAKEEAAKFTKEDLEKNFKTLLNYIQVSVKTATNFVYINDTHAKRKLENIETKIKTLIAKIKEKSNLYQAYKAIVRPILLMRDSLKEVQGAIDKNGIWY
Regarding B6, in test [1], the “IC50 of C3b deposition, classical pathway-specific ELISA with normal human serum” value stood at 32 nM; the “IC50 of MAC deposition, classical pathway-specific ELISA with normal human serum” value was 35 nM; the “IC50 of classical pathway hemolysis of sensitized sheep red blood cells by human serum; no saturable inhibition up to 1 uM” value was approximately 7600 nM.

B7: BGD19-C (residues 206-354, B. garinii strain IP90) (domain or fragment)
chain: B6 chain
In the test with human C1 complex, B7 had a dissociation constant Kd of 3 nM, a koff of 0.00035 s⁻¹ and an on-rate (kon) of 120000 M⁻¹ s⁻¹. Moreover, in test [2], the Kd was determined as 5.3 nM, the koff amounted to 8.1e-05 s⁻¹ and the on-rate (kon) was 15000 M⁻¹ s⁻¹.
